From publication PMC11407402
Values joined by “and” are separate entries in the source; they are usually repeats but may differ in a detail not shown here. Identical values can stand only once.

Biological target: non-glycosylated recombinant FcγRIIIa, 158 V allele, immobilised in the TSKgel FcγR-IIIA-NPR column
Test: affinity HPLC on immobilised receptor

Q: Which elution time does the source give for “anti-CD20 antibody (rituximab V regions), wild-type human IgG1” here?
A: 14.4 min and 16.2 min and 17.9 min

Q: And the mean elution time?
A: 15.5 min
